Data as given in patent US20160047810A1 (INSTITUT PASTEUR, published 2016).

Columns and labels:
[1] = molecular target: T1, FtsZ (purified, from pET11a-ftsZ), P0A9A6
T1 chain: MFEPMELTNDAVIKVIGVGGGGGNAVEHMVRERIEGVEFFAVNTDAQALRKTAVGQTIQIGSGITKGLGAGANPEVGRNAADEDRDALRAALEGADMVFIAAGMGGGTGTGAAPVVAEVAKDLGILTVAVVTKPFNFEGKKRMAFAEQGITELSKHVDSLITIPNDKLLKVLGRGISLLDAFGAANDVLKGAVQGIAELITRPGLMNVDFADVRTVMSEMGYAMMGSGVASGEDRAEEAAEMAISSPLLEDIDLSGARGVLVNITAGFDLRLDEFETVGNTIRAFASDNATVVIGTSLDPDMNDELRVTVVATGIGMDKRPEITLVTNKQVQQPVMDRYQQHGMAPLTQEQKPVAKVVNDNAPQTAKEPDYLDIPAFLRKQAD

[2] = molecular target: the molecule itself; assay: self-association, polymerization assay, ultracentrifugation and western blot

B1: E. coli K12 Lop1-H6 (protein)
chain: MQSVTPTSQYLKALNEGSHQPDDVQKEAVSRLEIIYQELINSTPPAPRTSGLMARVGKLWGKREDTKHTPVRGLYMWGGVGRGKTWLMDLFYQSLPGERKQRLHFHRFMLRVHEELTALQGQTDPLEIIADRFKAETDVLCFDEFFVSDITDAMLLGGLMKALFARGITLVATSNIPPDELYRNGLQRARFLPAIDAIKQHCDVMNVDAGVDYRLRTLTQAHLWLSPLHDETRAQMDKLWLALAGGKRENSPTLEINHRPLATMGVENQTLAVSFTTLCVDARSQHDYIALSRLFHTVMLFDVPVMTRLMESEARRFIALVDEFYERHVKLVVSAEVPLYEIYQGDRLKFEFQRCLSRLQEMQSEEYLKREHLAG
- FtsZ polymer proteolysis assay (ultracentrifugation, western blot) [1]: The FtsZ polymers incubation with Lop1 lead to their slight degradation at t=3 min in an ATP-dependent manner

B2: E. coli K12 Lop1K84A-H6 (protein)
chain: MQSVTPTSQYLKALNEGSHQPDDVQKEAVSRLEIIYQELINSTPPAPRTSGLMARVGKLWGKREDTKHTPVRGLYMWGGVGRGATWLMDLFYQSLPGERKQRLHFHRFMLRVHEELTALQGQTDPLEIIADRFKAETDVLCFDEFFVSDITDAMLLGGLMKALFARGITLVATSNIPPDELYRNGLQRARFLPAIDAIKQHCDVMNVDAGVDYRLRTLTQAHLWLSPLHDETRAQMDKLWLALAGGKRENSPTLEINHRPLATMGVENQTLAVSFTTLCVDARSQHDYIALSRLFHTVMLFDVPVMTRLMESEARRFIALVDEFYERHVKLVVSAEVPLYEIYQGDRLKFEFQRCLSRLQEMQSEEYLKREHLAG
- FtsZ polymer proteolysis assay (ultracentrifugation, western blot) [1]: no degradation of FtsZ polymers was observed with LOp1 K84A

B3: E. coli K12 Lop1Δ1-59-H6 (protein)
chain: WGKREDTKHTPVRGLYMWGGVGRGKTWLMDLFYQSLPGERKQRLHFHRFMLRVHEELTALQGQTDPLEIIADRFKAETDVLCFDEFFVSDITDAMLLGGLMKALFARGITLVATSNIPPDELYRNGLQRARFLPAIDAIKQHCDVMNVDAGVDYRLRTLTQAHLWLSPLHDETRAQMDKLWLALAGGKRENSPTLEINHRPLATMGVENQTLAVSFTTLCVDARSQHDYIALSRLFHTVMLFDVPVMTRLMESEARRFIALVDEFYERHVKLVVSAEVPLYEIYQGDRLKFEFQRCLSRLQEMQSEEYLKREHLAG
- FtsZ polymer proteolysis assay (ultracentrifugation, western blot) [1]: incubation of FtsZ polymers with Lop1Δ1-59 in the absence of ATP caused its significant degradation (t=1 min, no FtsZ signal in the soluble fraction)

B4: FtsZ (purified, from pET11a-ftsZ) (other)
chain: MFEPMELTNDAVIKVIGVGGGGGNAVEHMVRERIEGVEFFAVNTDAQALRKTAVGQTIQIGSGITKGLGAGANPEVGRNAADEDRDALRAALEGADMVFIAAGMGGGTGTGAAPVVAEVAKDLGILTVAVVTKPFNFEGKKRMAFAEQGITELSKHVDSLITIPNDKLLKVLGRGISLLDAFGAANDVLKGAVQGIAELITRPGLMNVDFADVRTVMSEMGYAMMGSGVASGEDRAEEAAEMAISSPLLEDIDLSGARGVLVNITAGFDLRLDEFETVGNTIRAFASDNATVVIGTSLDPDMNDELRVTVVATGIGMDKRPEITLVTNKQVQQPVMDRYQQHGMAPLTQEQKPVAKVVNDNAPQTAKEPDYLDIPAFLRKQAD
notes: Used as GTP-induced polymers in the proteolysis assays; also called FtsZ polymers; Z-ring
- binding result [2]: binds

B5: K12 H6-Lop1Δ1-59Δ303-375 (protein)
chain: WGKREDTKHTPVRGLYMWGGVGRGKTWLMDLFYQSLPGERKQRLHFHRFMLRVHEELTALQGQTDPLEIIADRFKAETDVLCFDEFFVSDITDAMLLGGLMKALFARGITLVATSNIPPDELYRNGLQRARFLPAIDAIKQHCDVMNVDAGVDYRLRTLTQAHLWLSPLHDETRAQMDKLWLALAGGKRENSPTLEINHRPLATMGVENQTLAVSFTTLCVDARSQHDYIALSRLFHTVMLFD
- FtsZ polymer proteolysis assay (1 min at 30° C., western blot of the pellet) [1]: the 73aa C-terminal fragment of Lop1Δ1-59 was required for the proteolytic degradation of FtsZ polymers
